From patent US20100136580A1 (Genentech, published 2010)

T1: GST-Dvl2PDZ fusion protein (human, UniProt O14641 248-364)
T1 construct: range 248-364; Made with the pGEX E. coli expression system; also called GST-PDZ fusion protein; not shown: glutathione S-transferase (GST) encoded by plasmid pGEX
T1 sequence (looked up): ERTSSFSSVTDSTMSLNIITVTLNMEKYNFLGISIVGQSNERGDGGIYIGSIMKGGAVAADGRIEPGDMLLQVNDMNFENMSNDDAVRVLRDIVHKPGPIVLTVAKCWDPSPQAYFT


Target: T1, GST-Dvl2PDZ fusion protein
Test: phage display selection on GST-Dvl2PDZ
Description: The libraries were cycled through rounds of binding selection with a GST-Dvl2PDZ fusion protein coated on 96-well Maxisorp immunoplates as the capture target. Phage were propagated in E. coli XL1-blue with M13-KO7 helper phage and 10 μM IPTG. After four rounds of binding selection, individual phage clones were analyzed in a high-throughput phage ELISA, and positive clones were subjected to DNA sequence analysis.
We used decapeptide libraries fused to the C-terminus or N-terminus of the phage coat protein. The library contained NNK degenerate codons that encoded all 20 natural amino acids. The possible occurrence of amber stop codons in the degenerate codon also provided for the display of shorter peptides for the C-terminal library. Each library was cycled through four rounds of binding selection with immobilized GST-Dvl2PDZ fusion protein as the capture target.

Row | binding result | Binder
1 | binds | IVRWTLLGIF [SEQ ID NO 7]
2 | binds | GWTWKDYGMIGGG [SEQ ID NO 49]
3 | binds | NEVWIDGPGQ [SEQ ID NO 157]
4 | binds | NEVWIDGPGI [SEQ ID NO 159]
5 | binds | SEWKNYGYIGGG [SEQ ID NO 48]
6 | binds | SWYFKFYGWL [SEQ ID NO 38]
7 | binds | EKIVKDYGWIGGG [SEQ ID NO 51]
8 | binds | DIVLTNYGWIGGG [SEQ ID NO 43]
9 | binds | RIVSFFYGWL [SEQ ID NO 29]
10 | binds | PRIFKDYGMF [SEQ ID NO 9]
11 | binds | GEMWVDGPCL [SEQ ID NO 151]
12 | binds | VPTWIDGPCVD [SEQ ID NO 158]
13 | binds | EMVVTNYGWIGGG [SEQ ID NO 54]
14 | binds | MMWIDGPLAS [SEQ ID NO 150]
15 | binds | RTRFTCFGWF [SEQ ID NO 34]
16 | binds | WVLVDYGVIGGG [SEQ ID NO 46]
17 | binds | ETWIDGPMYT [SEQ ID NO 153]
18 | binds | PEVWIDGPESG [SEQ ID NO 156]
19 | binds | TTEVWVDWPM [SEQ ID NO 161]
20 | binds | LTEIWIDGWP [SEQ ID NO 154]
21 | binds | YWTRTFYGFF [SEQ ID NO 10]
22 | binds | DRIRFLGWF [SEQ ID NO 14]
23 | binds | LLFLKYYGWL [SEQ ID NO 20]

Row | binding result | Binder
24 | binds | TIWWDYGAI [SEQ ID NO 166]
25 | binds | AEQWIDGPHL [SEQ ID NO 160]
26 | binds | NRWRLLGWF [SEQ ID NO 11]
27 | binds | SPRFTFLGWF [SEQ ID NO 28]
28 | binds | GEMWVDGPCL [SEQ ID NO 162]
29 | binds | RPFCTFLGWF [SEQ ID NO 37]
30 | binds | KFLGWF [SEQ ID NO 30]
31 | binds | TSWCKWYGWL [SEQ ID NO 12]
32 | binds | ERWIDYGYIL [SEQ ID NO 152]
33 | binds | SWWNKCYGWF [SEQ ID NO 5]
34 | binds | NKRYTVLGWF [SEQ ID NO 6]
35 | binds | EWSHVYYGWLGGG [SEQ ID NO 42]
36 | binds | ELRWHDYGWIGGG [SEQ ID NO 57]
37 | binds | SISYWFYGWL [SEQ ID NO 19]
38 | binds | TPLYNYFGGL [SEQ ID NO 32]
39 | binds | ELRWHDYGWIGGG [SEQ ID NO 56]
40 | binds | YFFYGWF [SEQ ID NO 31]
41 | binds | AVRWLFLGWF [SEQ ID NO 15]
42 | binds | QAVYKNYGWIGGG [SEQ ID NO 41]
43 | binds | NWKWYGFF [SEQ ID NO 24]
44 | binds | QTIWKDYGIIGGG [SEQ ID NO 45]
45 | binds | YTFFGWF [SEQ ID NO 25]
46 | binds | FWIYKYYGRF [SEQ ID NO 13]

Row | binding result | Binder
47 | binds | TWRVLGWF [SEQ ID NO 23]
48 | binds | TSSWKWYGWL [SEQ ID NO 8]
49 | binds | TSFLKGYGWL [SEQ ID NO 18]
50 | binds | SWKLLGFF [SEQ ID NO 17]
51 | binds | RISWTFLGYF [SEQ ID NO 36]
52 | binds | QWVMTECGWIGGG [SEQ ID NO 52]
53 | binds | DMDFTGFGWLGGG [SEQ ID NO 55]
54 | binds | NRIPCLGGW [SEQ ID NO 27]
55 | binds | MTKWIWYGWL [SEQ ID NO 35]
56 | binds | TVVWHDYGWIGGG [SEQ ID NO 44]
57 | binds | QTIWKDYGII [SEQ ID NO 165]
58 | binds | TVVWHDYGWIGGG [SEQ ID NO 50]
59 | binds | STRHYRTWWF [SEQ ID NO 21]
60 | binds | NVFRFFGWL [SEQ ID NO 22]
61 | binds | RSGHRFLGWF [SEQ ID NO 16]
62 | binds | LVVKDYGWIGGG [SEQ ID NO 47]
63 | binds | ITRYTFFGFF [SEQ ID NO 39]
64 | binds | ELRWHDYGWIGGG [SEQ ID NO 40]
65 | binds | AEVWVDGPYI [SEQ ID NO 164]
66 | binds | GTQWKDYGWLGGG [SEQ ID NO 53]
67 | binds | SHFKFFGWF [SEQ ID NO 26]
68 | binds | TVRWVFFGFF [SEQ ID NO 33]
